Measurements reported in paper doi:10.1101/2024.06.06.597711.
Residue numbers refer to the chain shown, from its start.

B1: sctRNAPhe-3'exon-7nt (dsRNA)
RNA 1: AUCUGGA
RNA 2: AUCUGGA
modifications: 5'-phosphate; one strand 5'-adenylylated (AppRNA) in the crystal
B2: ASL-4U (structured_RNA)
RNA: AUCUGGAUUUUGCCAGACUGAAG
modifications: 5'-phosphate; terminal phosphate at 3' end (ordered as [Phos]; 2'-P form in the EMSA not stated)

Assays:
[1] = target: T1, CtTrl1-LIG WT (tRNA ligase LIG domain) (Chaetomium thermophilum (syn. …, UniProt G0S6G2 1-414)); assay: X-ray crystallography
T1 sequence: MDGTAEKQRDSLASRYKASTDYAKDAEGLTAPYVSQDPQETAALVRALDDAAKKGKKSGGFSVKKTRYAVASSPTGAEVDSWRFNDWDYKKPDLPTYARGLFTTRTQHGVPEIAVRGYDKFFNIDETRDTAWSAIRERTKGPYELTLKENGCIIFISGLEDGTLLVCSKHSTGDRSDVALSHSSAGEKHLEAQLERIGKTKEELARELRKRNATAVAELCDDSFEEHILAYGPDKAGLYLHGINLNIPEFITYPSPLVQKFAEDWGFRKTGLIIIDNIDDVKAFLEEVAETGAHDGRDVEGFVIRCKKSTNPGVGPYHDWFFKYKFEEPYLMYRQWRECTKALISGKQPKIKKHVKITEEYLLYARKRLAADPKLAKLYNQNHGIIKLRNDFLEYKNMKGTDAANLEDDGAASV

CtTrl1-LIG K148N = target: T2, CtTrl1-LIG K148N (Chaetomium thermophilum (syn. …, UniProt G0S6G2 1-414, K148N)); assay: EMSA
T2 sequence: T1 sequence with K148N

[2] = target: T1, CtTrl1-LIG WT (tRNA ligase LIG domain); assay: EMSA

Row | Binder | binding result [1] | binding result (CtTrl1-LIG K148N) | binding result [2]
1 | B1 | binds | – | –
2 | B2 | – | binds | binds
